Test system: MS2 coat protein
Test: apparent KD of MS2 coat protein; designed switch direction (-1 OFF switch, 1 ON switch): -1; higher = weaker reporter binding
Method in brief: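 Stalled E. coli RNA polymerase transcribed designed RNA switches on Illumina chips, which were then titrated with SNAP-549-labelled MS2 coat protein, doubling from 0.7 or 1.5 nM to 3 µM. Steps lasted from 0.8–1.5 h at the lowest concentration to 10–20 min at the highest. The apparent KD is each design's median over clusters of curve-fitted normalised fluorescence.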

[1] = Eterna round: R95, input ligand: FMN 200 uM
[2] = Eterna round: R95, input ligand: microRNA oligo, concentration not stated
[3] = Eterna round: R95, input ligand: none
[4] = input ligand: microRNA oligo, concentration not stated

| Sequence | apparent KD of MS2 coat protein [1] [nM] | apparent KD of MS2 coat protein [2] [nM] | apparent KD of MS2 coat protein [3] [nM] | apparent KD of MS2 coat protein (input ligand: FMN 200 uM) [nM] | apparent KD of MS2 coat protein [4] [nM] | apparent KD of MS2 coat protein (input ligand: none) [nM] |
| --- | --- | --- | --- | --- | --- | --- |
| AGUAACUAUCACGAAAGUGAUAGUUACAAAACAAGUGAAACAUGAGGAUCACCCAUGUCCUCACUUGCUCGUCUUAU [Sensor 3 - 5] (puzzle: Sensor v3, turn-off variant 2) | 14.2 | 128 | 13.4 | – | – | – |
| AGUAACUAUCACGAAAGUGAUAGUUACAAAAGCAGUGAAACAUGAGGAUCACCCAUGUCCUCAUUUGCUCGUCUUAU [Sensor 3 - 24] (puzzle: Sensor v3, turn-off variant 2) | 53.4 | 576 | 66.5 | – | – | – |
| AGUAACUAUCACGAAAGUGAUAGUUACACAAGCAGUGGAACAUGAGGAUCACCCAUGUCCUCAUUUGCUCGUCUUAU [Sensor 3 - 27] (puzzle: Sensor v3, turn-off variant 2) | 35.5 | 19.6 | 42.2 | – | – | – |
| AGUACUAACACGAAAGUGUUAGUACAAAUGAGCUUUUGAACAUGAGGAUCACCCAUGUCCUCAUAAGCUCGUCUUAA [Mat - Sensor v2 - var 2 - Mod - D174] (Eterna round: R96, puzzle: Sensor v2, turn-off variant 2) | – | – | – | 27.4 | 408 | 32.2 |
| AGUACUAACACGAAAGUGUUAGUACAAUAAGCUUGUGAAACAUGAGGAUCACCCAUGUCCUCAUACGCUCGUCUUAU [salish99_TOv2_r3_055] (puzzle: Sensor v3, turn-off variant 2) | 500 | 789 | 655 | – | – | – |
| AGUACUAACACGAAAGUGUUAGUACAAUAAGCUUGUGAAACAUGAGGAUCACCCAUGUCCUCAUAUGCUCGUCUUAU [salish99_TOv2_r3_053] (puzzle: Sensor v3, turn-off variant 2) | 471 | 822 | 641 | – | – | – |
| AGUACUAACACGAAAGUGUUAGUACAAUAAGCUUGUGAAACAUGAGGAUCACCCAUGUCCUCAUCAGCUCGUCUUAU [salish99_TOv2_r3_052] (puzzle: Sensor v3, turn-off variant 2) | 124 | 409 | 191 | – | – | – |
| AGUACUAACACGAAAGUGUUAGUACAAUAAGCUUGUGAAACAUGAGGAUCACCCAUGUCCUCUUAAGCUCGUCUUAU [salish99_TOv2_r3_047] (puzzle: Sensor v3, turn-off variant 2) | 116 | 329 | 124 | – | – | – |
| AGUACUAACACGAAAGUGUUAGUACAAUAAGCUUGUGUUACAUGAGGAUCACCCAUGUCCUCAUAAGCUCGUCUUAU [JL-sv3-2.14 mat747 mod] (puzzle: Sensor v3, turn-off variant 2) | 100 | 48.5 | 98.1 | – | – | – |
| AGUACUAACACGAAAGUGUUAGUACCAUAAGCUUGUGAAACAUGAGGAUCACCCAUGUCCUCAUAAGCUCGUCUUAU [salish99_TOv2_r3_041] (puzzle: Sensor v3, turn-off variant 2) | 18.8 | 720 | 19.5 | – | – | – |
| AGUACUAACACGAAAGUGUUAGUACUAUAAGCUUGUGAUACAUGAGGAUCACCCAUGUCCUCAUAAGCUCGUCUUAU [Mat - Sensor v3 - Turn-off var 2 - D101] (Eterna round: R96, puzzle: Sensor v3, turn-off variant 2) | – | – | – | 21.1 | 477 | 21.7 |
| AGUACUAACACGAAAGUGUUAGUACUAUAAGCUUGUGAUACAUGAGGAUCACCCAUGUCCUCAUAAGCUCGUCUUAU [Mat - Sensor v3 - Turn-off var 2 - D101] (puzzle: Sensor v3, turn-off variant 2) | 19 | 1820 | 19.6 | – | – | – |
| AGUACUAACACGAAUGUGUUAGUACAAUAAGCUUGUGAAACAUGAGGAUCACCCAUGUCCUCAUAAGCUCGUCUUAU [salish99_TOv2_r3_032] (puzzle: Sensor v3, turn-off variant 2) | 16.3 | 779 | 15.5 | – | – | – |
| AGUACUAACACGAGAGUGUUAGUACUAUAAGCUUGUGUUACAUGAGGAUCACCCAUGUCCUCAUAGGCUCGUCUUAA [Mat - Sensor v3 - Turn-off var 2 - D82] (puzzle: Sensor v3, turn-off variant 2) | 75.8 | 75.5 | 81.4 | – | – | – |
| AGUACUAACACGAUAGUGUUAGUACAAUAAGCUUGUGUUACAUGAGGAUCACCCAUGUCCUCAUAAGCUCGUCUUAA [Mat - Sensor v3 - Turn-off var 2 - D59] (puzzle: Sensor v3, turn-off variant 2) | 44.3 | 594 | 35.3 | – | – | – |
| AGUACUAACACGCCAGUGUUAGUACAAUAAGCUUGUGAAACAUGAGGAUCACCCAUGUCCUCAUAAGCUCGUCUUAU [salish99_TOv2_r3_028] (puzzle: Sensor v3, turn-off variant 2) | 16.9 | 677 | 15.1 | – | – | – |

| Sequence | apparent KD of MS2 coat protein [1] [nM] | apparent KD of MS2 coat protein [2] [nM] | apparent KD of MS2 coat protein [3] [nM] | apparent KD of MS2 coat protein (input ligand: FMN 200 uM) [nM] | apparent KD of MS2 coat protein [4] [nM] | apparent KD of MS2 coat protein (input ligand: none) [nM] |
| --- | --- | --- | --- | --- | --- | --- |
| AGUACUAUCACGAAAGUGAUAGUACAAAAUAACAAGUGAACAUGAGGAUCACCCAUGUCCUCAUUUGCUCGUCUUAU [Sensor 3 - 18] (puzzle: Sensor v3, turn-off variant 2) | 418 | 925 | 421 | – | – | – |
| AGUACUAUGCGAGCUGACUUGCGUAGUGCAGCAGGUGGAACAUGAGGAUCACCCAUGUCCUCAUUUGCUCGUCUUAA [Mat - Sensor v3 - Turn-off var 2 - D5] (puzzle: Sensor v3, turn-off variant 2) | 27.4 | 109 | 29.8 | – | – | – |
| AGUACUAUGCGUGCUGACAUGCGUAGUGCAGCAGGUGUUACAUGAGGAUCACCCAUGUCCUCAUUUGCUCGUCUUAU [Mat - Sensor v3 - Turn-off var 2 - D15] (puzzle: Sensor v3, turn-off variant 2) | 75.7 | 79.2 | 80.4 | – | – | – |
| AGUCAGAGAGGAUAUACAUGGGAAAAAAAAGUAAGAUCCCUACAUGAGGAUCACCCAUGUAGAAGGCUCUGACA [Ex2 Design 139: Sub-opt 3] (Eterna round: R96, puzzle: Exclusion 2) | – | – | – | – | 17.3 | – |
| AGUCGAAAGACCCACAUGGACAUGAGGAUCACCCAUGUGCAAGCCUUUUGCUCGUCAGCUAGGUCAAAAGACCUAGC [JL Omei mod 1] (Eterna round: R97, puzzle: Sensor, turn-off variant 1) | – | – | – | 655 | – | 813 |
| AGUCUGCGAGGAUAUACAUGAGGAUCACCCAUGUGCGAAGAACUAGUGAGGUCGAUUGGUAGAAGGCGCGGACA [Mat - Exclusion 3 - Mod of JL D88] (puzzle: Exclusion 3) | – | 241 | – | – | – | – |
| AGUGCGUAUGUGAGGAUAUGCUGGUCCUUGGCUCGGCAGAAGGCACAUGAGGAUCACCCAUGUGGUGUCGUACC [salish99_Bmod_ex4_059] (puzzle: Brourd's mod of Exclusion 4) | – | 25 | – | – | – | – |
| AGUGCGUAUGUGAGGAUAUGCUGGUCCUUGGCUCGGCAGAAGGCACAUGAGGAUCACCCAUGUGGUGUCGUACU [salish99_Bmod_ex4_066] (puzzle: Brourd's mod of Exclusion 4) | – | 148 | – | – | – | – |
| AGUGCUGCAGGAUAUUCUAUUAAUUACAUGAGGAUCACCCAUGUGAAUGGACAAGGGUGUGAAGAAGGGUGGUGCG [Omei Ex5 A17h] (Eterna round: R97, puzzle: Exclusion 5) | – | – | – | 375 | – | 605 |
| AGUGCUGGCGCGUCGGUGUUGGUACAAUAAGCUUGUGAAACAUGAGGAUCACCCAUGUCCUCAUAAGCUCGUCUUAU [salish99_TOv2_r2_084] (puzzle: Sensor v3, turn-off variant 2) | 17.6 | 553 | 16.9 | – | – | – |
| AGUGGGCUAGGAUAUCGAUGAACUCACAUGAGGAUCACCCAUGUGUCUUCGGUGGGCGCGCGAGAAGGAGUGAGAU [Belaange] (puzzle: Exclusion 5) | 63.6 | 26.9 | 37.9 | – | – | – |
| AGUGUGUGGCAGGAUAUGCGAUUUAUAGGUGAAGCAGAAGGGUCUACAUGAGGAUCACCCAUGUGUGCGGUUGA [Ex6 #21] (Eterna round: R97, puzzle: Exclusion 6) | – | – | – | 318 | – | 160 |
| AGUUAGAUAGGAUAUGCCCGAGAUAACAUGAGGAUCACCCAUGUGACCGAAUCUAUUCUAGCAGAAGGGUUUAGGA [Mod of ViennaUCT 18 - Jieux - Exclusion 5] (Eterna round: R97, puzzle: Exclusion 5) | – | – | – | 23.6 | – | 31.3 |
| AGUUGGCGAGGAUAUACAUGAGGAUCACCCAUGUGAAAUCCAAGUGAGGAAAUGAAAAGUAGAAGGCGCUGACA [Mod of Mat 23 - Jieux - Exclusion 3] (Eterna round: R97, puzzle: Exclusion 3) | – | – | – | 50 | – | 20.8 |
| AGUUGGCGAGGAUAUACAUGAGGAUCACCCAUGUGAGAGAAUAAAGUGAGGAAGAAAAGUAGAAGGCGCUGACG [Mat - Exclusion 3 - Mod of Salish D7] (puzzle: Exclusion 3) | 61.1 | 52 | 53.8 | – | – | – |
| AUAAAAGCAGGAUAUGCGCGGUGUGAUGCCGCAUGCUCGUCACAUGAGGAUCACCCAUGUAGAAGGGCUAAAUG [Diramadidi] (Eterna round: R97, puzzle: Exclusion 2) | – | – | – | 19.3 | – | 15.6 |
